{"source": "paper PMC2863221", "about": "(The Journal of Biological Chemistry, 2010)", "proteins": {"B1": {"name": "HA-tagged rat syndecan-4 AAA mutant (serines 44, 65 and 67 mutated to alanine; no glycosaminoglycan chains) (receptor, UniProt P34901 24-202, looked up)", "chain": "ESIRETEVIDPQDLLEGRYFAGALPDDEDAGGLEQDSDFELAGAGDLDDTEEPRTFPEVISPLVPLDNHIPENAQPGIRVPSEPKELEENEVIPKRVPSDVGDDDVSNKVSMSSTSQGSNIFERTEVLAALIVGGVVGILFAVFLILLLVYRMKKKDEGSYDLGKKPIYKKAPTNEFYA"}}, "molecular_target": "the molecule itself", "assay": "SDS-PAGE and Western blot"}
{"protein": "B1", "values": [{"measurement": "stoichiometry N", "result": 2}]}
